Where two headings read alike, the source gives them in different places.

The target of assay [1] is T1, human CD19 (human, UniProt P15391 20-556).
T1 construct: In the killing assay it is also on Daudi and Raji cells; also called K562-CD19; K562 cells stably transfected with human CD19
T1 sequence: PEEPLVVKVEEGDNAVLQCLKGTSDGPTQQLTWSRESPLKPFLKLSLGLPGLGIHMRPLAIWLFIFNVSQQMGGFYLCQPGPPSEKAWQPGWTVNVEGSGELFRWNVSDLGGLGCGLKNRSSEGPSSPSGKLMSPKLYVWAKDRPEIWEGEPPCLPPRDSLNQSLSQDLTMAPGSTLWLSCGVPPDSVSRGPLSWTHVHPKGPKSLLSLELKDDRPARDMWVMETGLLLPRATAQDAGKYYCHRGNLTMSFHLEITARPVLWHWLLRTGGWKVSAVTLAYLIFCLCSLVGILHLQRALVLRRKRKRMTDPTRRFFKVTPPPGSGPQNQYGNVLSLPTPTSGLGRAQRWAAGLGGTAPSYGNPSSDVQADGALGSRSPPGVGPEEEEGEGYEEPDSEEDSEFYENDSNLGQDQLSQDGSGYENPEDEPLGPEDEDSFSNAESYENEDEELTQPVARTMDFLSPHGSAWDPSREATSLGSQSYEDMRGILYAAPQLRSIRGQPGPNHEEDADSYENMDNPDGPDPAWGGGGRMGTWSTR
Nature of the assay: flow cytometry on K562-CD19 cells. As for the experimental part:
(§1) K562 cells (K562-CD19) stably expressing human CD19 and K562 were used, and cells were harvested, washed with complete growth medium and plated into U-bottom microtiter plates at approximately 1−5×10⁵ cells/well. The gradient-diluted huHD37 scFv_Fc fusion antibody was incubated with K562-CD19/K562 for 30 minutes on ice, and then incubated with FITC-labeled anti-human Fc as a secondary antibody. After two washing steps, the analysis was performed using Guava easyCyte™ HT System, and the experimental data was processed using GraphPad Prism to obtain an EC50.
For orientation: Flow cytometry measures light scatter and fluorescence of single cells or particles in a stream.

The target in assay [2] is T1, human CD19. Kind of assay: flow cytometry, scFv_Fc on K562-CD19 cells, FITC anti-human Fc. Here is the method: as §1
K562 cells stably expressing human CD19 (K562-CD19) and K562 were used, and cells were harvested, washed with complete growth medium, and plated into U-bottom microtiter plates at approximately 1−5×10⁵ cells/well. The gradient diluted scFv_Fc fusion antibody was incubated with K562-CD19/K562 for 30 minutes on ice, and then incubated with FITC-labeled anti-human Fc as a secondary antibody. After two washing steps, the analysis was performed using Guava easyCyte™ HT System, and the experimental data was processed using GraphPad Prism to obtain an EC50.

Assay [3] has as its target T2, human CD19 (UniProt P15391 20-556).
T2 chain: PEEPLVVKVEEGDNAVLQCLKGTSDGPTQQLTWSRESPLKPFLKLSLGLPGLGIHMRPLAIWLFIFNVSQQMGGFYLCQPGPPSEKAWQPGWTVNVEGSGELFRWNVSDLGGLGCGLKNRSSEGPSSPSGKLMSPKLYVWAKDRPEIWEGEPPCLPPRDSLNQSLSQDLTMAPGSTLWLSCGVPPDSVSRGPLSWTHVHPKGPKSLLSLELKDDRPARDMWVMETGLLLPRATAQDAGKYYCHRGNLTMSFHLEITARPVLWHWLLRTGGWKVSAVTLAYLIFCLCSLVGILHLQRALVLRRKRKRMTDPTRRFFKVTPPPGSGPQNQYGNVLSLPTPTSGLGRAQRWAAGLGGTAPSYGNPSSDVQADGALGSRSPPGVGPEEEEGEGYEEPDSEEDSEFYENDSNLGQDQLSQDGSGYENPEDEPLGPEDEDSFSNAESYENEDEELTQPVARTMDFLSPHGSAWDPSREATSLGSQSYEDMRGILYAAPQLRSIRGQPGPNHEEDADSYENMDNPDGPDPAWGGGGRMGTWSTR
Nature of the assay: FACS cell binding; avid.

The target in assay [4] is T2, human CD19. Kind of assay: FACS cell binding; avid.

B1: murine antibody HD37 (scFv chimeric with human IgG1 Fc) (Fc fusion)
VH: QVQLQQSGAELVRPGSSVKISCKASGYAFSSYWMNWVKQRPGQGLEWIGQIWPGDGDTNYNGKFKGKATLTADESSSTAYMQLSSLASEDSAVYFCARRETTTVGRYYYAMDYWGQGTTVTVSS
VL: DIQLTQSPASLAVSLGQRATISCKASQSVDYDGDSYLNWYQQIPGQPPKLLIYDASNLVSGIPPRFSGSGSGTDFTLNIHPVEKVDAATYHCQQSTEDPWTFGGGTKLEIKR
notes: also called parental antibody HD37; parental HD37
With B1, the binding result in assay [1] is on record as “binds”.

B2: humanized antibody huHD37 (scFv_Fc fusion antibody) (Fc fusion)
scFv: QVQLVQSGAEVKKPGSSVKVSCKASGYTFSSYWMNWVRQAPGQGLEWMGQIWPGDGDTNYNGKFKGRVTITADESTSTAYMELSSLRSEDTAVYYCARRETTTVGRYYYAMDYWGQGTTVTVSSGGGGSGGGGSGGGGSDIVLTQSPASLAVSPGQRATITCKASQSVDYDGDSYLNWYQQKPGQPPKLLIYDASNLVSGVPARFSGSGSGTDFTLTINPVEANDTANYYCQQSTEDPWTFGQGTKVEIKR
notes: also called humanized huHD37; not shown: human IgG1 Fc fragment carried by the eukaryotic expression vector V152
On to B2, for which the binding result in assay [2] is recorded as “binds”. Further, the EC50 (as a rule, the concentration needed to bring the measured effect to its halfway point) in assay [3] stood at 4.7 nM.

B3: clone 6B3 (scFv_Fc) (Fc fusion)
scFv: QVQLVQSGAEVKKPGSSVKVSCKASGYTFSSYWINWVRQAPGQGLEWMGQIWPGDGETHYNGKFKGRVTITADESTSTAYMELSSLRSEDTAVYYCARRETTTVGRYYYAMDYWGQGTTVTVSSGGGGSGGGGSGGGGSDIVLTQSPASLAVSPGQRATITCKASQSVDYDGDSYLNWYQQKPGQPPKLLIYDASNLVSGVPARFSGSGSGTDFTLTINPVEANDTANYYCQQSTEDPWTFGQGTKVEIKR
In turn, B3 yielded an EC50 in assay [4] of 2.74 nM.

B4: clone 8E3 (scFv_Fc) (Fc fusion)
scFv: QVQLVQSGAEVKKPGSSVKVSCKASGYTFSSYWMNWVRQAPGQGLEWMGQIWPGDGDTNYNGKFKGRVTITADESTSTAYMELSSLRSEDTAVYYCARRETTTVGRYYYAMDYWGQGTTVTVSSGGGGSGGGGSGGGGSDIVLTQSPASLAVSPGQRATITCKASHSLDYDGDNYLNWYQQKPGQPPKLLIYDASNLVSGVPARFSGSGSGTDFTLTINPVEANDTANYYCQQSTEDPWTFGQGTKVEIKR
notes: Only the light chain is said to differ from huHD37; not shown: Human Fc fragment of expression vector V152 (and any junction residues to it)
As to B4, the binding result in assay [2] is “binds”. In addition, the EC50 in assay [4] came out at 4.72 nM.

The values above are taken from US20200062843A1 (CRAGE MEDICAL, published 2020).
